Source: US20220137067A1

B1: crenezumab (antibody, INN chains, looked up, V domains shown)
VH: EVQLVESGGGLVQPGGSLRLSCAASGFTFSSYGMSWVRQAPGKGLELVASINSNGGSTYYPDSVKGRFTISRDNAKNSLYLQMNSLRAEDTAVYYCASGDYWGQGTTVTVSS
VL: DIVMTQSPLSLPVTPGEPASISCRSSQSLVYSNGDTYLHWYLQKPGQSPQLLIYKVSNRFSGVPDRFSGSGSGTDFTLKISRVEAEDVGVYYCSQSTHVPWTFGQGTKVEIKR
B2: crenezumab light stress sample (2.4 million lux hours) (antibody, INN chains, looked up, V domains shown)
VH: B1 VH
VL: B1 VL
modifications: light-stressed degraded sample

Legend:
[1] = biological target: biotin beta-amyloid 1-42 peptide (Anaspec) (human); experiment: cell-based or functional assay; settings: scale: % Relative Potency
[2] = biological target: Recombinant human amyloid β 1-42 peptide (rPeptide) (human); experiment: ELISA on plate-adsorbed recombinant human Aβ 1-42, anti-human IgG-HRP detection, parallel line analysis; mean of three assays; settings: scale: % Relative Potency

| Binder | Phagocytosis Reporter Cell Potency [1] | Aβ Binding Potency (% Relative Potency) [2] |
| --- | --- | --- |
| B1 | 99 | – |
| B2 | 86 | 84 |
